# PMC3951439 (Science (New York, N.Y.), 2013)
# Target: PRC2 (Homo sapiens, UniProt Q15910)
# Experiment: PRC2 histone methyltransferase assay on nucleosomes
# Assay type: biochemical
# Conditions: peptide titration, µM concentrations; fluorography (Fig. 3E, fig. S3, D and E)
# Sequence of PRC2 (Q15910 whole entry): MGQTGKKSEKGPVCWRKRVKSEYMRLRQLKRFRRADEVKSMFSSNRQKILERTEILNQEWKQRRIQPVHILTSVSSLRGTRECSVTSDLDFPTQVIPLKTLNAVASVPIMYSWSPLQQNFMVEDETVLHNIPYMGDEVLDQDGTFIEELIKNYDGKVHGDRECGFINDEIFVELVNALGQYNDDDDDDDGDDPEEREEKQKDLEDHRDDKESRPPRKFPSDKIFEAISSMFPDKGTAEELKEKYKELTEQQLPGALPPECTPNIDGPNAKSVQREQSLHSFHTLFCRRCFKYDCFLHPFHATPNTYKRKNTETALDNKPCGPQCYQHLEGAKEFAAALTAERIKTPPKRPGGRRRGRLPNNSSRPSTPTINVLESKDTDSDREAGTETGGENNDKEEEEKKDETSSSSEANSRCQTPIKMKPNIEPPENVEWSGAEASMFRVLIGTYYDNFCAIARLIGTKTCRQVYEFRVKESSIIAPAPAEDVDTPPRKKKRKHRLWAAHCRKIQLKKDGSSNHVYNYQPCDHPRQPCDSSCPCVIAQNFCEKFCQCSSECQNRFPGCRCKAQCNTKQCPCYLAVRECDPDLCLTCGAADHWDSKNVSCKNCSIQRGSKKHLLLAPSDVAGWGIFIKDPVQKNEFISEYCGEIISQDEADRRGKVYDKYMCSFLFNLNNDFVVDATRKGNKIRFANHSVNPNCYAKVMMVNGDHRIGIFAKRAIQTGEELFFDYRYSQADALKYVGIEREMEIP
# Sequence of PRC2 (O75530 whole entry partner): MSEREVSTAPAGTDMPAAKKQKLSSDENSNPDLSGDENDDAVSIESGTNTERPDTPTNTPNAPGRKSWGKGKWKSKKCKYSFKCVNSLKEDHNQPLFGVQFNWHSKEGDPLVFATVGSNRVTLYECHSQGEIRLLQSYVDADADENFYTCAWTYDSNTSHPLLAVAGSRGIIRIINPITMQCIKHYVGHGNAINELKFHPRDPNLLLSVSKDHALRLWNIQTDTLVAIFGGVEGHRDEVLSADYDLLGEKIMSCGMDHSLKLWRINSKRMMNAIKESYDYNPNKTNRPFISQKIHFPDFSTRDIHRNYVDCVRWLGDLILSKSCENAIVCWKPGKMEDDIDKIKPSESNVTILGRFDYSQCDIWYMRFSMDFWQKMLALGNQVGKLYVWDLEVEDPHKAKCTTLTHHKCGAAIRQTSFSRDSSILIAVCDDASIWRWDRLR
# Sequence of PRC2 (Q6ZN18 whole entry partner): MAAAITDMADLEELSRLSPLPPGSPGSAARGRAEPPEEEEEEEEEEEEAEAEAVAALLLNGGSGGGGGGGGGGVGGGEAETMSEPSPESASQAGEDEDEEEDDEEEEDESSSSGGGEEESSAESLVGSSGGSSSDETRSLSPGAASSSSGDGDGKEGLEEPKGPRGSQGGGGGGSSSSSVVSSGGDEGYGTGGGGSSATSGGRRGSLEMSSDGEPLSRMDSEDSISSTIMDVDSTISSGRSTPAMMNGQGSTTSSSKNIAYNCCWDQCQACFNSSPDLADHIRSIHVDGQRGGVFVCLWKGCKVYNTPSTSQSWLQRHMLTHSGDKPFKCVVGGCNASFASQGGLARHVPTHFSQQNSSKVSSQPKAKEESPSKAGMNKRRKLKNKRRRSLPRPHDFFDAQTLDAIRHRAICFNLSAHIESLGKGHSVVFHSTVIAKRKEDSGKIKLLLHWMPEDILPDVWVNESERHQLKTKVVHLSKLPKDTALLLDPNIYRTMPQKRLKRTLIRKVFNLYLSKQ
# Sequence of PRC2 (Q15022 whole entry partner): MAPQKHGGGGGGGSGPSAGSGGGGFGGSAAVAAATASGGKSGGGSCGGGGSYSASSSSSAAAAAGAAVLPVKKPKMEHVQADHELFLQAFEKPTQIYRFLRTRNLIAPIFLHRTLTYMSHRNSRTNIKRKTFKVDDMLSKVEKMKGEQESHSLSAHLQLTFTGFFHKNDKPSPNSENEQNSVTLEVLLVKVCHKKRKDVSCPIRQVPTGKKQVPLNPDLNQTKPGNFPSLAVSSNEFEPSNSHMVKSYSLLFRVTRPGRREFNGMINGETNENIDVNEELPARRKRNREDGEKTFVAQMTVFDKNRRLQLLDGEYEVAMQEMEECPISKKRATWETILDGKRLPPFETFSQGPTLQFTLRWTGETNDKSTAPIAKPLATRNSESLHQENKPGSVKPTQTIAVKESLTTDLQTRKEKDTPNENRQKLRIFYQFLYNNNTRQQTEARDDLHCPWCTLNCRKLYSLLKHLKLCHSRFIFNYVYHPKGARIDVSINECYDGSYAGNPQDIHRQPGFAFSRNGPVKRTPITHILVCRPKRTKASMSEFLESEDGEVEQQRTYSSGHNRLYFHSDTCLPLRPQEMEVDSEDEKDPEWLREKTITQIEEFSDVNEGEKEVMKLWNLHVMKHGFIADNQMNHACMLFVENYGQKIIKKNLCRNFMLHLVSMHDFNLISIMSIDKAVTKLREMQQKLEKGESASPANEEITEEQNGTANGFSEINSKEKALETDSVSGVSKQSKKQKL
# Sequence of PRC2 (Q09028 whole entry partner): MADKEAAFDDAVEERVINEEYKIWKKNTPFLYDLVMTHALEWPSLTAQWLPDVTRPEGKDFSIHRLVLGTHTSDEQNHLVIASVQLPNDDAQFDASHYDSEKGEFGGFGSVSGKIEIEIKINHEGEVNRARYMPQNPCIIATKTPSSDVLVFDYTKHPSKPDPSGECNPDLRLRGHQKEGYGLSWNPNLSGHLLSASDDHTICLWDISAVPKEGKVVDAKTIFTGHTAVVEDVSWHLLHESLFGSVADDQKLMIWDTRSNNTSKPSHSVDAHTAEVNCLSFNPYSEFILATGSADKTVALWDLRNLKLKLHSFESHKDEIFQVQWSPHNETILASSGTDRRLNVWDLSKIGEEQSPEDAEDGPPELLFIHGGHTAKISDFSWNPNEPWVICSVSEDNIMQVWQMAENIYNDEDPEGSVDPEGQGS
substance,measurement,value
K27ac: H3 peptide (18 to 37) containing K27acetyl,dose-dependent inhibition of PRC2 methyltransferase activity,"not the K27ac peptide, could inhibit PRC2-dependent methyltransferase activity in a dose-dependent manner"
